Target: T1, recombinant mTOR kinase domain (amino acid 1363-2549) (UniProt P42345 1363-2549)
T1 construct: also called mTOR kinase domain protein; mTOR (in vitro); source: bought: Sigma-Aldrich (Cat #14-770)
Experiment: co-IP; in vitro: ETV7 and mTOR incubated overnight at 4 °C in the presence or absence of Ndel-FRB and/or 120 aa-LBE; ETV7 IPs immunoblotted for mTOR, ETV7 and Flag
Settings: both partners purified

T1 sequence (P42345 1363-2549): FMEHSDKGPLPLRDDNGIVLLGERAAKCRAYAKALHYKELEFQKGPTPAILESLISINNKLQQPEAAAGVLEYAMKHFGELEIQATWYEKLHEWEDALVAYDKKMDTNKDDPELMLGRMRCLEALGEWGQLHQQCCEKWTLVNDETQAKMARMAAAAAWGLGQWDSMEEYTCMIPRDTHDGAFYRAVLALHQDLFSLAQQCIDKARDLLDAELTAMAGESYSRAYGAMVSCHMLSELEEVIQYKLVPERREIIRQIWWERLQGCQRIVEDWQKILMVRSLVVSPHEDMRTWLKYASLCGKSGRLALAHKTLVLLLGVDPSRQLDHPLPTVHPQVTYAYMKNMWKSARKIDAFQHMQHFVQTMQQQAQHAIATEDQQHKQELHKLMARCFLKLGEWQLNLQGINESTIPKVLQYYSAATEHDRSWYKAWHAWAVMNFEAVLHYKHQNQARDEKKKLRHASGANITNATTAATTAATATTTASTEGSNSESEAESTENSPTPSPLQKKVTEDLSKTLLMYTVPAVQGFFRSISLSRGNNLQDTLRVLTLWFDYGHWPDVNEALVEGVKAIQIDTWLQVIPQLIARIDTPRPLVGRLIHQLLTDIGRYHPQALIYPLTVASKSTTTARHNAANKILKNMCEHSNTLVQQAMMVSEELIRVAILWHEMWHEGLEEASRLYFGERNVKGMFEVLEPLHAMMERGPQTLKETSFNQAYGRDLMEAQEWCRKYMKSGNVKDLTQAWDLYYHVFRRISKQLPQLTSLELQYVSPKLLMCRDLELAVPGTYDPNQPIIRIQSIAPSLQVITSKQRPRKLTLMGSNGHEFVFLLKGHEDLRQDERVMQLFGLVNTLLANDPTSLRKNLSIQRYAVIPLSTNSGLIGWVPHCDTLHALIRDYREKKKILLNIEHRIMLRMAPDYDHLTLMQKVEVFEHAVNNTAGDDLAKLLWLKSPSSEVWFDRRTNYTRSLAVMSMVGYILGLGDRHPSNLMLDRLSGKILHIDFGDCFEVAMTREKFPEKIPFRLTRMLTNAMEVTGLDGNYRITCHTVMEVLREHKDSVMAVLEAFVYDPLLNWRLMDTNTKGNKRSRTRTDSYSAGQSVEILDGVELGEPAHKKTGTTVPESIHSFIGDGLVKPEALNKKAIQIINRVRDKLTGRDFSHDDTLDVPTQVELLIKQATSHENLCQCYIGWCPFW

binding result: binds
B1: ETV7 protein (recombinant) (natural protein)
chain: MQEGELAISPISPVAAMPPLGTHVQARCEAQINLLGEGGICKLPGRLRIQPALWSREDVLHWLRWAEQEYSLPCTAEHGFEMNGRALCILTKDDFRHRAPSSGDVLYELLQYIKTQRRALVCGPFFGGIFRLKTPTQHSPVPPEEVTGPSQMDTRRGHLLQPPDPGLTSNFGHLDDPGLARWTPGKEESLNLCHCAELGCRTQGVCSFPAMPQAPIDGRIADCRLLWDYVYQLLLDTRYEPYIKWEDKDAKIFRVVDPNGLARLWGNHKNRVNMTYEKMSRALRHYYKLNIIKKEPGQKLLFRFLKTPGKMVQDKHSHLEPLESQEQDRIEFKDKRPEISP
notes: ETV7, bought recombinant protein; also called ETV7 (in vitro); purified ETV7; source: bought: Origene (Cat #TP307742)
